These results are taken from PMC7710921 (Structure (London, England : 1993), 2020).

In test [1] the target is unlabelled hTBP (human TATA-box Binding Protein) (human) (UniProt P20226). In words: single-molecule two-colour nanometer co-localisation.
Another test deals with T1, His-tagged Rap74 (human, UniProt P35269 1-517).
T1 sequence (looked up): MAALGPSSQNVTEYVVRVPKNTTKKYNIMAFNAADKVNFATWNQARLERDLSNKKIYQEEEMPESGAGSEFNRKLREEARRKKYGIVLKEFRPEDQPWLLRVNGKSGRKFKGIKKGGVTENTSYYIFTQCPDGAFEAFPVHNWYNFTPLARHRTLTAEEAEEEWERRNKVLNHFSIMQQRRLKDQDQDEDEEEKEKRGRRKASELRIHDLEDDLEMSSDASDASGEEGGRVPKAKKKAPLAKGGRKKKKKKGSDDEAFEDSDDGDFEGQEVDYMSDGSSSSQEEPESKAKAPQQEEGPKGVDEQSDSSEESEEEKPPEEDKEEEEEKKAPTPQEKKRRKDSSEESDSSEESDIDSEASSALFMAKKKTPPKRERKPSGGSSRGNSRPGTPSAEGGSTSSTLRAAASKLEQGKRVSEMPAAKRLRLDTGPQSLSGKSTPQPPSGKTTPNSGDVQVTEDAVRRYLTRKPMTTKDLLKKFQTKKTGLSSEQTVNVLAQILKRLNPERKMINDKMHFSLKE
The test is described as follows: reconstitution by refolding and Ni-NTA co-purification.

Take “Alexa647-labelled hTFIIA (from UniProt P52655 1-376; P52657 1-109) (complex)”: the percent of TFIIA spots co-localised with TATA-box DNA in the presence of TBP in test [1] turned out to be 45%.

B1: Rap30 (natural protein, human, UniProt P13984 1-249, looked up)
chain: MAERGELDLTGAKQNTGVWLVKVPKYLSQQWAKASGRGEVGKLRIAKTQGRTEVSFTLNEDLANIHDIGGKPASVSAPREHPFVLQSVGGQTLTVFTESSSDKLSLEGIVVQRAECRPAASENYMRLKRLQIEESSKPVRLSQQLDKVVTTNYKPVANHQYNIEYERKKKEDGKRARADKQHVLDMLFSAFEKHQYYNLKDLVDITKQPVVYLKEILKEIGVQNVKGIHKNTWELKPEYRHYQGEEKSD
As to B1, the binding result in the test with His-tagged Rap74 is given as “binds”.
